One block for each binder: values may come before it.
Legend:
[1] = biological target: T1, Met extracellular domain fragment (residues 25-567, sema domain and cysteine-rich domain) with C-terminal … (UniProt P08581 25-307; P08581 308-567); test: AlphaScreen competition of unlabeled ligand against biotin-NK1 binding to 6his-Met, 1 uM heparin
T1 construct: also called 6his-Met; Met sema domain
Description: (§1) The binding of NK1 to Met was determined by AlphaScreen assays using a hexahistidine detection kit from Perkin-Elmer. The experiment was performed using 10 nM biotin-NK1 and 6his-Met in the presence of 5 μg/ml donor and acceptor beads in a buffer containing 50 mM MOPS, pH7.4, 50 mM NaF, 0.05 mM CHAPS, and 0.1 mg/ml bovine serum albumin. Competition experiments were performed with 0.01 to 2.5 μM untagged ligand in the presence of 1 μM heparin and IC₅₀ values for NK1-Met interaction were determined from a nonlinear least square fit of the data. All experiments were duplicated or triplicated with standard errors typically less than 10% of the measurements. The Met dimerization assays were prepared using 40 nM of 6his-Met in the presence of 5 μg/ml nickel chelate donor and acceptor beads (Perkin-Elmer). The effect of Met ligands and heparin on Met dimerization was determined using 1 μM untagged ligand and 1 μM heparin.
To determine the binding affinities of the various NK1s for Met, competition experiments were performed using unlabeled NK1 proteins (FIG. 1E). […] These quantitative measurements thus establish that the affinities of the NK1 fragments are 10-50 folds weaker than the full-length HGF.

[2] = biological target: the molecule itself; test: crystal structure of mouse NK1
Description: Data were collected with a MAR 225 CCD detector at 5-ID (DND-CAT) of the Advance Photon Source (APS) located at Argonne National Laboratory. Crystals were flash frozen in liquid nitrogen after a quick wash in cryoprotectant solution containing 50 mM ammonium sulfate, 29% PEG 4000 or 1000 (w/w) (human or mouse NK1 respectively), 100 mM Tris-HCl pH 8.0, 0.5 or 0 mM βOG, 100 mM NaCl, and 15% ethylene glycol. Data was integrated and scaled with HKL2000 (Otwinowski and Minor, 1997). The human NK1 crystallized in space group P21, a=49.40 Å, b=51.81 Å, c=73.17 Å, and β=107.87°, and the mouse NK1 in P63 with a=b=86.49 Å, c=104.45 Å. The structure was solved by molecular replacement using the PDB coordinates 1NK1. Molecular replacement and model refinement were performed with CNS, where twin fraction was incorporated for the refinement for the mouse structure (Brunger et al., 1998). Manual model building was done with the program 0 (Jones et al., 1991).
To investigate the molecular mechanism by which NK1 induces Met dimerization, the crystal structure of mouse NK1 at a 2.4 Å resolution and a high resolution structure of human NK1 (1.8 Å) were determined for structural comparison.

[3] = biological target: T1, Met extracellular domain fragment …; test: cell-based or functional assay
[4] = biological target: T1, Met extracellular domain fragment …; test: AlphaScreen competition against biotin-NK1 binding to 6his-Met, 1 uM heparin
Description: as §1
(§2) In contrast to the Met dimerization activity, the Met binding activity of these NK1 mutants was little affected.

[5] = biological target: T1, Met extracellular domain fragment …; test: SPR, MET567 amine-coupled to a CM5 chip, ligand in flow
Source text: (§3) Briefly, a CM5 chip was coated with MET567 by amine coupling chemistry. Ligand was then flowed through the cell at various concentrations to allow calculation of the dissociation equilibrium (KD).
(§4) NK1 versions of the above mutants were expressed in the yeast P. pastoris and purified to homogeneity.

[6] = biological target: T1, Met extracellular domain fragment …; test: AlphaScreen, biotinylated NK1 and histidine-tagged Met, with against without heparin
Description: as §1
(§5) To determine the functional activity of the above purified proteins, the direct interactions of Met with the biotinylated NK1 were measured using AlphaScreen assays as illustrated in FIG. 1C. […] When NK1 interacts with Met, excitation of a laser beam at 680 nm causes the donor beads to emit single oxygen molecules to activate the fluorophores in the acceptor beads and a light signal is detected at 520-620 nm. […]

[7] = biological target: T1, Met extracellular domain fragment …; test: AlphaScreen, biotinylated NK1 on streptavidin donor beads and 6his-Met on nickel chelate acceptor beads, with heparin (sheet prints '+ 1 pM HEPARIN') [d]
Description: as §1, §5

[8] = biological target: T1, Met extracellular domain fragment …; test: AlphaScreen competition: unlabeled NK1 mutant against biotinylated NK1 binding to 6his-Met, with heparin [b]
Description: as §1, §2

[9] = biological target: T1, Met extracellular domain fragment …; test: SPR, MET567 amine-coupled to a CM5 chip, against wild type NK1
Source text: as §3, §4

IC50 [1]: ~30 nM
Met dimerization signal (AlphaScreen), 1 µM NK1 without heparin; fold label over the bar [b] [3]: 1 fold
Met dimerization signal (AlphaScreen, 6his-Met on donor and acceptor beads), 1 µM NK1 with heparin; fold label over the bar [b] [3]: 46 fold
B1: mouse NK1 (ligand)
chain: YAEGQKKRRNTLHEFKKSAKTTLTKEDPLLKIKTKKVNSADECANRCIRNRGFTFTCKAFVFDKSRKRCYWYPFNSMSSGVKKGFGHEFDLYENKDYIRNCIIGKGGSYKGTVSITKSGIKCQPWNSMIPHEHSFLPSSYRGKDLQENYCRNPRGEEGGPWCFTSNPEVRYEVCDIPQCSEV
notes: also called mouse NK1 (E. coli)
binding result [2]: binds

IC50 [1]: ~100 nM
fold weaker affinity than mouse NK1 and the human R134G mutant [1]: 3 fold
Met dimerization signal (AlphaScreen), 1 µM NK1 without heparin; fold label over the bar [b] [3]: 1 fold
Met dimerization signal (AlphaScreen, 6his-Met on donor and acceptor beads), 1 µM NK1 with heparin; fold label over the bar [b] [3]: 84 fold
IC50 [4]: 49 nM
B2: human HGF NK1 (residues 28-209), expressed in E. coli (ligand)
chain: YAEGQRKRRNTIHEFKKSAKTTLIKIDPALKIKTKKVNTADQCANRCTRNKGLPFTCKAFVFDKARKQCLWFPFNSMSSGVKKEFGHEFDLYENKDYIRNCIIGKGRSYKGTVSITKSGIKCQPWSSMIPHEHSFLPSSYRGKDLQENYCRNPRGEEGGPWCFTSNPEVRYEVCDIPQCSEV
notes: Expressed as a 6xHis-thioredoxin fusion; also called human NK1; wild type NK1

Kd [5]: 183 nM
B3: wild type NK1 expressed in P. pastoris (Example 7) (ligand)
chain: YAEGQRKRRNTIHEFKKSAKTTLIKIDPALKIKTKKVNTADQCANRCTRNKGLPFTCKAFVFDKARKQCLWFPFNSMSSGVKKEFGHEFDLYENKDYIRNCIIGKGRSYKGTVSITKSGIKCQPWSSMIPHEHSFLPSSYRGKDLQENYCRNPRGEEGGPWCFTSNPEVRYEVCDIPQCSEV
notes: Lietha 2001

fold increase of the NK1-Met binding signal on addition of heparin [6]: > 200 fold
fold label beside the bar of NK1+MET with heparin (NK1-MET binding signal) [7]: 265 fold
B4: biotinylated human NK1 (ligand)
chain: YAEGQRKRRNTIHEFKKSAKTTLIKIDPALKIKTKKVNTADQCANRCTRNKGLPFTCKAFVFDKARKQCLWFPFNSMSSGVKKEFGHEFDLYENKDYIRNCIIGKGRSYKGTVSITKSGIKCQPWSSMIPHEHSFLPSSYRGKDLQENYCRNPRGEEGGPWCFTSNPEVRYEVCDIPQCSEV
modifications: biotin on the N-terminal biotin acceptor peptide (coexpressed BirA)
notes: Made from the His6-thioredoxin-NK1 vector, digested with thrombin, purified on monomeric avidin; also called biotin-NK1; biotinylated NK1; not shown: 20 amino acid biotin acceptor peptide from the pDW464 plasmid (Duffy et al., 1998)

IC50 [1]: ~30 nM
Met dimerization signal (AlphaScreen), 1 µM NK1 without heparin; fold label over the bar [b] [3]: 1 fold
Met dimerization signal (AlphaScreen, 6his-Met on donor and acceptor beads), 1 µM NK1 with heparin; fold label over the bar [b] [3]: 68 fold
B5: human NK1 mutant R134G (ligand)
chain: YAEGQRKRRNTIHEFKKSAKTTLIKIDPALKIKTKKVNTADQCANRCTRNKGLPFTCKAFVFDKARKQCLWFPFNSMSSGVKKEFGHEFDLYENKDYIRNCIIGKGGSYKGTVSITKSGIKCQPWSSMIPHEHSFLPSSYRGKDLQENYCRNPRGEEGGPWCFTSNPEVRYEVCDIPQCSEV
notes: Positions count on wild type NK1; also called human R134G mutant; human R134G NK1

Kd [5]: 83 nM
B6: NK1 linker mutant LE (N127A), P. pastoris (ligand)
chain: YAEGQRKRRNTIHEFKKSAKTTLIKIDPALKIKTKKVNTADQCANRCTRNKGLPFTCKAFVFDKARKQCLWFPFNSMSSGVKKEFGHEFDLYENKDYIRACIIGKGRSYKGTVSITKSGIKCQPWSSMIPHEHSFLPSSYRGKDLQENYCRNPRGEEGGPWCFTSNPEVRYEVCDIPQCSEV

IC50 [8]: 75 nM
B7: human NK1 mutant K85A/D123A in the R134G background (ligand)
chain: YAEGQRKRRNTIHEFKKSAKTTLIKIDPALKIKTKKVNTADQCANRCTRNKGLPFTCAAFVFDKARKQCLWFPFNSMSSGVKKEFGHEFDLYENKAYIRNCIIGKGGSYKGTVSITKSGIKCQPWSSMIPHEHSFLPSSYRGKDLQENYCRNPRGEEGGPWCFTSNPEVRYEVCDIPQCSEV
notes: made in the R134G background

Kd [5]: 160 nM
B8: NK1 K1 mutant K1D (V140A:I142A), P. pastoris (ligand)
chain: YAEGQRKRRNTIHEFKKSAKTTLIKIDPALKIKTKKVNTADQCANRCTRNKGLPFTCKAFVFDKARKQCLWFPFNSMSSGVKKEFGHEFDLYENKDYIRNCIIGKGRSYKGTASATKSGIKCQPWSSMIPHEHSFLPSSYRGKDLQENYCRNPRGEEGGPWCFTSNPEVRYEVCDIPQCSEV

Kd [5]: 149 nM
B9: NK1 linker mutant LC (Y124A), P. pastoris (ligand)
chain: YAEGQRKRRNTIHEFKKSAKTTLIKIDPALKIKTKKVNTADQCANRCTRNKGLPFTCKAFVFDKARKQCLWFPFNSMSSGVKKEFGHEFDLYENKDAIRNCIIGKGRSYKGTVSITKSGIKCQPWSSMIPHEHSFLPSSYRGKDLQENYCRNPRGEEGGPWCFTSNPEVRYEVCDIPQCSEV

fold reduced MET binding affinity [9]: > 100 fold
B10: NK1 double mutant LG (D123A:N127A), P. pastoris (ligand)
chain: YAEGQRKRRNTIHEFKKSAKTTLIKIDPALKIKTKKVNTADQCANRCTRNKGLPFTCKAFVFDKARKQCLWFPFNSMSSGVKKEFGHEFDLYENKAYIRACIIGKGRSYKGTVSITKSGIKCQPWSSMIPHEHSFLPSSYRGKDLQENYCRNPRGEEGGPWCFTSNPEVRYEVCDIPQCSEV

IC50 [8]: 97 nM
B11: human NK1 mutant K85A/N127A in the R134G background (ligand)
chain: YAEGQRKRRNTIHEFKKSAKTTLIKIDPALKIKTKKVNTADQCANRCTRNKGLPFTCAAFVFDKARKQCLWFPFNSMSSGVKKEFGHEFDLYENKDYIRACIIGKGGSYKGTVSITKSGIKCQPWSSMIPHEHSFLPSSYRGKDLQENYCRNPRGEEGGPWCFTSNPEVRYEVCDIPQCSEV
notes: made in the R134G background

IC50 [4]: 32 nM
B12: human NK1 mutant K85A in the R134G background (ligand)
chain: YAEGQRKRRNTIHEFKKSAKTTLIKIDPALKIKTKKVNTADQCANRCTRNKGLPFTCAAFVFDKARKQCLWFPFNSMSSGVKKEFGHEFDLYENKDYIRNCIIGKGGSYKGTVSITKSGIKCQPWSSMIPHEHSFLPSSYRGKDLQENYCRNPRGEEGGPWCFTSNPEVRYEVCDIPQCSEV
notes: also called K85A NK1

fold reduced MET binding affinity [9]: > 100 fold
B13: NK1 double mutant LF (D123A:Y124A), P. pastoris (ligand)
chain: YAEGQRKRRNTIHEFKKSAKTTLIKIDPALKIKTKKVNTADQCANRCTRNKGLPFTCKAFVFDKARKQCLWFPFNSMSSGVKKEFGHEFDLYENKAAIRNCIIGKGRSYKGTVSITKSGIKCQPWSSMIPHEHSFLPSSYRGKDLQENYCRNPRGEEGGPWCFTSNPEVRYEVCDIPQCSEV

IC50 [4]: 39 nM
B14: human NK1 mutant Y124A in the R134G background (ligand)
chain: YAEGQRKRRNTIHEFKKSAKTTLIKIDPALKIKTKKVNTADQCANRCTRNKGLPFTCKAFVFDKARKQCLWFPFNSMSSGVKKEFGHEFDLYENKDAIRNCIIGKGGSYKGTVSITKSGIKCQPWSSMIPHEHSFLPSSYRGKDLQENYCRNPRGEEGGPWCFTSNPEVRYEVCDIPQCSEV
notes: also called Y124A NK1; Y124A mutant
